Test results as given in patent US5496831.

Target: E2F-1 (UniProt Q01094)
Assay: cell_activity
Details: CHO cells, -T antigen; CAT/bGAL 5.2 vs 2.6

Chain of E2F-1 (Q01094 whole entry): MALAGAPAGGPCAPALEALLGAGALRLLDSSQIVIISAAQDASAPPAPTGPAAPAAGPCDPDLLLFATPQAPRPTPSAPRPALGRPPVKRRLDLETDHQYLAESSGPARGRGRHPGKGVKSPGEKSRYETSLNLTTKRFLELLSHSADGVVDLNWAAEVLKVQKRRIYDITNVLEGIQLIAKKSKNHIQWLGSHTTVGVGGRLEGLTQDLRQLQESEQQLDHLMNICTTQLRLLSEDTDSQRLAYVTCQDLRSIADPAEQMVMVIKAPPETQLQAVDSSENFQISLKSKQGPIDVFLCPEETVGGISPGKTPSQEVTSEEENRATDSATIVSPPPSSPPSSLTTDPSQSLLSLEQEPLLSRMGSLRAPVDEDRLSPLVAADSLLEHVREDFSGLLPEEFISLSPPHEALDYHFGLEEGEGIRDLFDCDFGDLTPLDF

In the case of HGAPDH promoter (-487 to +21)-CAT, the activity is reported as 2 fold.
